Measurements as given in patent US20190322748A1 (Hoffmann-La Roche, published 2019).
Values joined by “and” are separate entries in the source; they are usually repeats but may differ in a detail not shown here. Identical values can stand only once. Like-named read-outs stand apart in the source and are kept apart here.

Legend:
Tim3-ECD-His-Biotin [1] = molecular target: T1, Tim3-ECD-His-Biotin (human, UniProt Q8TDQ0 22-202, biotinylated with BirA Ligase, site not stated); test: ELISA on human Tim3
T1 construct: also called human Tim3 (ELISA); Biochem Human

[2] = molecular target: T2, full-length human Tim3 on cells (CHO-K1 stably transfected with plasmid 15312_hTIM3-fl_pUC_Neo) (human, UniProt Q8TDQ0 22-301); test: cellular ELISA on CHO-TIM3
T2 construct: Also used as the target of the MLR read-outs (native TIM-3); also called CHO-Tim3; CHO-TIM3

monomeric human Tim3-ECD [3] = molecular target: T3, monomeric human Tim3-ECD (human, UniProt Q8TDQ0 22-202); test: SPR, Ab captured, monomer Tim3
T3 construct: SPR analyte; also called huTim3; hu Tim3-ECD

[4] = molecular target: T4, huFc fused dimeric human Tim3-ECD (human, UniProt Q8TDQ0 22-202); test: SPR, Ab captured, dimer Tim3 (avidity)
T4 construct: also called huTim3Fc; Fc-tagged human Tim3-ECD dimer

Tim3-ECD-His-Biotin [5] = molecular target: T1, Tim3-ECD-His-Biotin; test: ELISA on streptavidin-captured Tim3-ECD-His-Biotin
[6] = molecular target: T2, full-length human Tim3 on cells (CHO-K1 …); test: cell ELISA on CHO-K1 cells with full-length human Tim3
monomeric human Tim3-ECD [7] = molecular target: T3, monomeric human Tim3-ECD; test: SPR BIAcore B4000, Ab captured on anti-mouse IgG, 25 C
Tim3-ECD-His-Biotin [8] = molecular target: T1, Tim3-ECD-His-Biotin; test: ELISA on human Tim3 (values in relation to the samples max value)
[9] = molecular target: T2, full-length human Tim3 on cells (CHO-K1 …); test: cellular ELISA on CHO-TIM3 (values in relation to the samples max value)
[10] = molecular target: T4, huFc fused dimeric human Tim3-ECD; test: SPR BIAcore B4000, Ab captured on anti-mouse IgG, 25 C, dimeric antigen (avidity)
[11] = molecular target: T5, full-length human PD1 on cells (CHO-K1 stably transfected with plasmid 15311_hPD1-fl_pUC_Neo) (human, UniProt Q15116 25-288); test: cell-based or functional assay
[12] = molecular target: T5, full-length human PD1 on cells (CHO-K1 …); test: cell-based or functional assay; remark: listed apart in the source
[13] = molecular target: T5, full-length human PD1 on cells (CHO-K1 …); test: cell-based or functional assay; remark: listed apart in the source
[14] = molecular target: T5, full-length human PD1 on cells (CHO-K1 …); test: cell-based or functional assay; remark: listed apart in the source
[15] = molecular target: T6, biotinylated PD1-ECD-AviHis (human, UniProt Q15116 25-170, biotinylated, site not stated); test: ELISA on coated biotinylated PD1-ECD-AviHis
T6 construct: also called huPD1; hu PD1

[16] = molecular target: T6, biotinylated PD1-ECD-AviHis; test: ELISA on coated biotinylated PD1-ECD-AviHis; remark: listed apart in the source
[17] = molecular target: T7, biotinylated TIM3-ECD-AviHis (human, UniProt Q8TDQ0 22-202, biotinylated, site not stated); test: ELISA on coated biotinylated TIM3-ECD-AviHis
T7 construct: also called huTIM3; Hu TIM3

human PD1-ECD [18] = molecular target: T8, human PD1-ECD (human, UniProt Q15116 25-170); test: SPR Biacore T200, Ab captured on anti-human IgG, 25 C
T8 construct: SPR analyte; also called hu PD1-ECD

[19] = molecular target: T9, Tim3-CLIP (on transiently transfected HEK293 cells) (human, CLIP-tag labelled with Clip-Red); test: cell-based TR-FRET on SNAP-tagged PD1 / CLIP-tagged TIM3 HEK293 cells, 1 h at 4 C; signal needs both receptors bound at once
T9 construct: The plasmid encodes residues 1-202 including the signal peptide; also called CLIP-tagged TIM3

human PD1-ECD [20] = molecular target: T8, human PD1-ECD; test: SPR; row head 'Affinity KD 37°C [nM] *)', first of two values, footnote not explained; first of the two values in the cell; row head KD 37°C, footnote *) not given
[21] = molecular target: T6, biotinylated PD1-ECD-AviHis; test: ligand replacing ELISA on coated PD1-ECD-AviHis; row head 'IC50 PD-L1, 2', competitor not told apart; blocking of ligand binding; head says 'PD-L1, 2', competitor not told apart
human PD1-ECD [22] = molecular target: T8, human PD1-ECD; test: SPR; row head 'Affinity KD 37°C [nM] *)', second of two values (equals the 25 C value of Table 9); second of the two values in the cell; footnote *) not given, so the difference from the first value is not told
human PD1-ECD [23] = molecular target: T8, human PD1-ECD; test: SPR Biacore T200, Ab captured on anti-human Fc IgG, hu PD1-ECD in solution, 25 C
monomeric human Tim3-ECD [24] = molecular target: T3, monomeric human Tim3-ECD; test: SPR Biacore T200, Ab captured on anti-human Fab IgG, hu Tim3-ECD in solution, 25 C
[25] = molecular target: T10, PD1-SNAP (on transiently transfected HEK293 cells) (human, SNAP-tag labelled with SNAP-Lumi4-Tb); test: cell-based TR-FRET on SNAP-tagged PD1 / CLIP-tagged TIM3 HEK293 cells, 1 h at 4 C; half-maximal FRET, i.e. simultaneous binding of both receptors, not of one arm alone
T10 construct: also called SNAP-tagged PD1

[26] = molecular target: T9, Tim3-CLIP (on transiently transfected …); test: as above
monomeric cyno Tim3-ECD = molecular target: T11, monomeric cyno Tim3-ECD (cynomolgus, UniProt A0A2K5U3G7 22-195); test: SPR BIAcore B4000, Ab captured on anti-mouse IgG, 25 C
T11 construct: extracellular domain; also called cyTim3; cynomolgus Tim3
T11 sequence: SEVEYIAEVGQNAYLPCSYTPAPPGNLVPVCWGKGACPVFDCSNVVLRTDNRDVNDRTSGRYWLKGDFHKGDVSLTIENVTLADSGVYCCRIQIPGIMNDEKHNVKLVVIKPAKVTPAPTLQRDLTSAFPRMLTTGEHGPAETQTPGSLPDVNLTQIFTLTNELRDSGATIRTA

B1: Tim3_0016 variant (0018) (antibody, V domains shown)
VH: QVTLKESGPGILQPSQTLSLTCSFSGFSLSTSGMSVGWIRQPSGKGLEWLAHIWLNDDVFFNPALKRRLTISKDTSNNQVFLQIASVVTADTATYYCVRANGYLYALDYWGQGISVTVSS
VL: QIVLTQSPAIMSASPGQKVTITCSASSSVNYTQWYQQKLGSSPKLWIYDAFKLAPGVPARFSGSGTGTSYSLTISSMEAEDAASYFCHQWSSYPWTFGGGTKLEIK
notes: Mouse monoclonal antibody; also called Tim3_0018; Tim3 0018
**Q.** B1 was tested. Which Inflexion point (Tim3-ECD-His-Biotin [1]) did it give?
**A.** Its Inflexion point is 15.3 ng/mL.

**Q.** And the Inflexion point [2]?
**A.** Its Inflexion point is 29.4 ng/mL.

**Q.** What about the Kd (monomeric human Tim3-ECD [3]) of the same binder?
**A.** Its Kd is 3.4 nM.

**Q.** And the Kd [4]?
**A.** Its Kd is 1.1 nM.

**Q.** And the EC50 (Tim3-ECD-His-Biotin [5])?
**A.** Its EC50 is 0.56 nM and 0.094 µg/mL.

**Q.** And the EC50 [6]?
**A.** Its EC50 is 0.52 nM and 0.087 µg/mL.

**Q.** And the Kd (monomeric human Tim3-ECD [7])?
**A.** Its Kd is 3.4 nM.

**Q.** And the EC50 (Tim3-ECD-His-Biotin [8])?
**A.** The EC50 was 0.0151 µg/mL.

**Q.** And the EC50 [9]?
**A.** The EC50 was 0.0264 µg/mL.

**Q.** And the Kd [10]?
**A.** Its Kd is 1.11 nM.

B2: chimeric PD1-0103 (antibody, human IgG1, V domains shown)
VH: EVILVESGGGLVKPGGSLKLSCAASGFSFSSYTMSWVRQTPEKRLDWVATISGGGRDIYYPDSVKGRFTISRDNAKNTLYLEMSSLMSEDTALYYCVLLTGRVYFALDSWGQGTSVTVSS
VL: KIVLTQSPASLPVSLGQRATISCRASESVDTSDNSFIHWYQQRPGQSPKLLIYRSSTLESGVPARFSGSGSRTDFTLTIDPVEADDVATYYCQQNYDVPWTFGGGTKLEIK
**Q.** Which results are given for B2?
**A.** EC50 of IFN-gamma secretion in MLR, donors D2 + D6 [11]: 7.7 nM; EC50 of IFN-gamma secretion in MLR, donors D2 + D6 [12]: 6.5 nM; EC50 of IFN-gamma secretion in MLR, donors D2 + D6 [13]: 6 nM; EC50 of IFN-gamma secretion in MLR, donors D1 + D3 [14]: 5.7 nM; EC50 of IFN-gamma secretion in MLR, donors D2 + D4 [14]: 5.7 nM; EC50 [15]: 0.2 nM; EC50 [16]: 0.12 nM; binding result [17]: no binding; Kd (human PD1-ECD [18]): 0.8 nM; koff (human PD1-ECD [18]): 0.000307 s⁻¹; kon (human PD1-ECD [18]): 386000 M⁻¹ s⁻¹; binding result [19]: no binding (tested: about 20 nM); Kd (human PD1-ECD [20]): 2 nM; IC50 [21]: 1.35 nM; Kd (human PD1-ECD [22]): 0.8 nM

B3: 1+1 PD1TIM3_0168 (based on chimeric PD1-0103 / Tim3-0018) (bispecific antibody, human IgG1, kappa, L234A L235A)
heavy 1: not shown
heavy 2: QVTLKESGPGILQPSQTLSLTCSFSGFSLSTSGMSVGWIRQPSGKGLEWLAHIWLNDDVFFNPALKRRLTISKDTSNNQVFLQIASVVTADTATYYCVRANGYLYALDYWGQGISVTVSSASTKGPSVFPLAPSSKSTSGGTAALGCLVEDYFPEPVTVSWNSGALTSGVHTFPAVLQSSGLYSLSSVVTVPSSSLGTQTYICNVNHKPSNTKVDEKVEPKSCDKTHTCPPCPAPEAAGGPSVFLFPPKPKDTLMISRTPEVTCVVVDVSHEDPEVKFNWYVDGVEVHNAKTKPREEQYNSTYRVVSVLTVLHQDWLNGKEYKCKVSNKALGAPIEKTISKAKGQPREPQVCTLPPSRDELTKNQVSLSCAVKGFYPSDIAVEWESNGQPENNYKTTPPVLDSDGSFFLVSKLTVDKSRWQQGNVFSCSVMHEALHNRFTQKSLSLSPGK
light 1: EVILVESGGGLVKPGGSLKLSCAASGFSFSSYTMSWVRQTPEKRLDWVATISGGGRDIYYPDSVKGRFTISRDNAKNTLYLEMSSLMSEDTALYYCVLLTGRVYFALDSWGQGTSVTVSSASVAAPSVFIFPPSDEQLKSGTASVVCLLNNFYPREAKVQWKVDNALQSGNSQESVTEQDSKDSTYSLSSTLTLSKADYEKHKVYACEVTHQGLSSPVTKSFNRGEC
light 2: QIVLTQSPAIMSASPGQKVTITCSASSSVNYTQWYQQKLGSSPKLWIYDAFKLAPGVPARFSGSGTGTSYSLTISSMEAEDAASYFCHQWSSYPWTFGGGTKLEIKRTVAAPSVFIFPPSDRKLKSGTASVVCLLNNFYPREAKVQWKVDNALQSGNSQESVTEQDSKDSTYSLSSTLTLSKADYEKHKVYACEVTHQGLSSPVTKSFNRGEC
notes: 1+1 CrossMAb Vh-VL: HC1/LC1 form the crossed PD1 arm, HC2/LC2 the TIM3 arm; knobs into holes
**Q.** B3 was tested. Which “EC50 of IFN-gamma secretion in MLR, donors D2 + D6” value [11] did it give?
**A.** Its value is 4.3 nM.

**Q.** What about the EC50 [16] of the same binder?
**A.** The EC50 was 0.11 nM.

**Q.** What about the EC50 [17] of the same binder?
**A.** Its EC50 is 0.41 nM.

**Q.** What about the Kd (human PD1-ECD [23]) of the same binder?
**A.** Its Kd is 1.2 nM.

**Q.** And the Kd (monomeric human Tim3-ECD [24])?
**A.** The Kd was 10.3 nM.

**Q.** And the “EC50 (read off the curve)” value [25]?
**A.** The value was ~0.7 nM.

**Q.** What about the “EC50 (read off the curve)” value [26] of the same binder?
**A.** Its value is ~0.7 nM.

B4: Tim3_0022 (antibody, V domains shown)
VH: EVQLQESGPSLVKPSQTLSLTCSVTGDSIASAYWNWIRKFPGNKLEYMGYINYSGSTYYNPSLKSRISITRDTSQNQYYLQLNSVTTEDTATYYCVTGDYFDYWGRGTTLTVSS
VL: DIQMTQSPSSLSAYLGGKVTITCKARQDVRKNIGWYQHKPGKGPRLLIWYTSTLQSGIPSRFSGSGSGRDYSFNINNLEPEDIATYYCLQYDNLPFTFGTGTKLEIR
**Q.** For B4, which Kd (monomeric cyno Tim3-ECD) is on record?
**A.** Its Kd is 28.4 nM.
